The Immune Epitope Database (IEDB)

Columns and labels:
HLA-B*57:01 [1] = assay: IEDB peptide-MHC binding, purified MHC/competitive/fluorescence; filed as Kd, often an IC50 or EC50 that approximates it; ≥ and ≤ were set here for values at or beyond the usual limits of such assays
HLA-B*15:17 = assay: as above
HLA-B*51:01 [2] = assay: as above
HLA-B*18:01 [3] = assay: as above
HLA-B*39:01 [4] = assay: as above; conditions: source organism: Orthohantavirus negraense
HLA-A*26:01 [5] = assay: as above
HLA-B*15:01 = assay: as above; conditions: source organism: Orthohantavirus negraense
HLA-A*69:01 [6] = assay: as above
HLA-A*02:01 [7] = assay: as above; conditions: source organism: Orthohantavirus negraense
HLA-B*27:05 = assay: as above; conditions: source organism: Orthohantavirus negraense
HLA-B*46:01 [8] = assay: as above
HLA-A*02:03 = assay: IEDB peptide-MHC binding, purified MHC/direct/fluorescence; filed as Kd, often an IC50 or EC50 that approximates it; ≥ and ≤ were set here for values at or beyond the usual limits of such assays
HLA-A*03:01 = assay: as above
HLA-A*68:02 = assay: as above
HLA-A*02:19 = assay: as above
HLA-A*29:02 = assay: as above
HLA-A*02:11 = assay: as above
HLA-A*02:16 = assay: as above
HLA-A*23:01 = assay: as above; conditions: source organism: Orthohantavirus negraense
HLA-A*24:03 = assay: as above
HLA-A*02:12 = assay: as above
HLA-B*57:01 [9] = assay: as above
HLA-B*18:01 [10] = assay: as above; conditions: source organism: Bacillus cereus G9842
HLA-A*26:01 [11] = assay: as above
HLA-B*27:03 [12] = assay: as above
HLA-A*69:01 [13] = assay: as above; conditions: source organism: Bacillus cereus G9842
HLA-A*02:01 [14] = assay: as above
HLA-B*46:01 [15] = assay: as above
HLA-B*51:01 [16] = assay: as above; conditions: source organism: Entamoeba histolytica HM-1:IMSS
HLA-B*39:01 [17] = assay: as above; conditions: source organism: Entamoeba histolytica HM-1:IMSS
HLA-B*15:42 = assay: IEDB peptide-MHC binding, purified MHC/competitive/fluorescence; filed as Kd, often an IC50 or EC50 that approximates it; ≥ and ≤ were set here for values at or beyond the usual limits of such assays; conditions: source organism: Mycobacterium tuberculosis str. Haarlem
HLA-B*83:01 = assay: as above; conditions: source organism: Mycobacterium tuberculosis str. Haarlem
HLA-B*45:06 = assay: as above; conditions: source organism: Mycobacterium tuberculosis str. Haarlem
HLA-C*05:01 = assay: IEDB peptide-MHC binding, purified MHC/direct/fluorescence; filed as Kd, often an IC50 or EC50 that approximates it; ≥ and ≤ were set here for values at or beyond the usual limits of such assays; conditions: source organism: Mycobacterium tuberculosis str. Haarlem
HLA-C*03:03 = assay: as above
HLA-B*27:03 [18] = assay: IEDB peptide-MHC binding, purified MHC/competitive/fluorescence; filed as Kd, often an IC50 or EC50 that approximates it; ≥ and ≤ were set here for values at or beyond the usual limits of such assays; conditions: source organism: Orthohantavirus andesense
HLA-C*07:02 = assay: IEDB peptide-MHC binding, purified MHC/direct/fluorescence; filed as Kd, often an IC50 or EC50 that approximates it; ≥ and ≤ were set here for values at or beyond the usual limits of such assays; conditions: source organism: Vaccinia virus
[19] = source organism: Orthohantavirus negraense
[20] = source organism: Bacillus cereus G9842
[21] = source organism: Entamoeba histolytica HM-1:IMSS
[22] = source organism: Mycobacterium tuberculosis str. Haarlem
[23] = source organism: Orthohantavirus andesense

In the case of RRFTQAIYD, the Kd (HLA-B*57:01 [1]; [19]) is reported as no less than 20 µM, the Kd (HLA-B*15:17; [19]) is reported as no less than 20 µM and the Kd (HLA-B*51:01 [2]; [19]) is reported as no less than 20 µM. For the same sequence, the Kd (HLA-B*18:01 [3]; [19]) was no less than 20 µM, the Kd (HLA-B*39:01 [4]) was no less than 20 µM and the Kd (HLA-A*26:01 [5]; [19]) was no less than 20 µM. For the same sequence, the Kd (HLA-B*15:01) was no less than 20 µM, the Kd (HLA-A*69:01 [6]; [19]) was no less than 20 µM and the Kd (HLA-A*02:01 [7]) was no less than 20 µM. The Kd (HLA-B*27:05) was 317 nM, the Kd (HLA-B*46:01 [8]; [19]) was no less than 20 µM and the Kd (HLA-A*02:03; [19]) was no less than 20 µM. It also gave a Kd (HLA-A*03:01; [19]) of no less than 20 µM, a Kd (HLA-A*68:02; [19]) of no less than 20 µM and a Kd (HLA-A*02:19; [19]) of no less than 20 µM. It also gave a Kd (HLA-A*29:02; [19]) of no less than 20 µM, a Kd (HLA-A*02:11; [19]) of no less than 20 µM and a Kd (HLA-A*02:16; [19]) of no less than 20 µM. The Kd (HLA-A*23:01) was no less than 20 µM, the Kd (HLA-A*24:03; [19]) was no less than 20 µM and the Kd (HLA-A*02:12; [19]) was no less than 20 µM.

Sequence TQIPRQMVL has a Kd (HLA-A*03:01; [20]) of no less than 20 µM, a Kd (HLA-A*68:02; [20]) of no less than 20 µM and a Kd (HLA-A*02:19; [20]) of no less than 20 µM. The Kd (HLA-B*57:01 [9]; [20]) was no less than 20 µM, the Kd (HLA-A*29:02; [20]) was no less than 20 µM and the Kd (HLA-B*18:01 [10]) was no less than 20 µM. For the same sequence, the Kd (HLA-A*26:01 [11]; [20]) was no less than 20 µM, the Kd (HLA-A*02:11; [20]) was no less than 20 µM and the Kd (HLA-B*27:03 [12]; [20]) was no less than 20 µM. The Kd (HLA-A*69:01 [13]) was no less than 20 µM, the Kd (HLA-A*02:16; [20]) was no less than 20 µM and the Kd (HLA-A*02:01 [14]; [20]) was no less than 20 µM. It also gave a Kd (HLA-A*24:03; [20]) of no less than 20 µM, a Kd (HLA-A*02:12; [20]) of no less than 20 µM and a Kd (HLA-B*46:01 [15]; [20]) of no less than 20 µM.

For VKINIFPLY, the Kd (HLA-A*02:03; [21]) was no less than 20 µM, the Kd (HLA-A*03:01; [21]) was no less than 20 µM and the Kd (HLA-A*68:02; [21]) was no less than 20 µM. It also gave a Kd (HLA-A*02:19; [21]) of no less than 20 µM, a Kd (HLA-B*57:01 [9]; [21]) of no less than 20 µM and a Kd (HLA-B*51:01 [16]) of no less than 20 µM. For the same sequence, the Kd (HLA-B*39:01 [17]) was no less than 20 µM, the Kd (HLA-A*26:01 [11]; [21]) was no less than 20 µM and the Kd (HLA-B*27:03 [12]; [21]) was no less than 20 µM. For the same sequence, the Kd (HLA-A*02:16; [21]) was no less than 20 µM, the Kd (HLA-A*02:01 [14]; [21]) was no less than 20 µM and the Kd (HLA-A*02:12; [21]) was no less than 20 µM. For the same sequence, the Kd (HLA-B*46:01 [15]; [21]) was no less than 20 µM.

YAREAGIAM showed a Kd (HLA-B*15:42) of no less than 5 µM, a Kd (HLA-B*83:01) of no less than 5 µM and a Kd (HLA-B*45:06) of no less than 5 µM. It also gave a Kd (HLA-B*46:01 [8]; [22]) of no less than 20 µM, a Kd (HLA-C*05:01) of no less than 20 µM and a Kd (HLA-C*03:03; [22]) of no less than 20 µM.

For YLIPSVTSL, the Kd (HLA-B*57:01 [1]; [23]) was no less than 20 µM, the Kd (HLA-B*15:17; [23]) was no less than 20 µM and the Kd (HLA-B*51:01 [2]; [23]) was no less than 20 µM. For the same sequence, the Kd (HLA-B*18:01 [3]; [23]) was no less than 20 µM, the Kd (HLA-A*26:01 [5]; [23]) was no less than 20 µM and the Kd (HLA-B*27:03 [18]) was no less than 20 µM. It also gave a Kd (HLA-A*69:01 [6]; [23]) of no less than 20 µM, a Kd (HLA-A*03:01; [23]) of no less than 20 µM and a Kd (HLA-A*68:02; [23]) of no less than 20 µM. The Kd (HLA-A*02:19; [23]) was no less than 20 µM, the Kd (HLA-A*29:02; [23]) was no less than 20 µM and the Kd (HLA-C*03:03; [23]) was no more than 0.001 µM. The Kd (HLA-A*02:01 [14]; [23]) was 0.0018 µM, the Kd (HLA-A*24:03; [23]) was no less than 20 µM and the Kd (HLA-A*02:12; [23]) was no less than 20 µM.

Work on YRHKNYYAL yielded a Kd (HLA-C*07:02) of 57 nM.
